Test results taken from patent US20020155500A1 (CURIS, published 2002).
Blank lines part the entries; values can stand above or below the binder they belong to.

Experiments:
[1] = biological target: T1, ALK-5 (transfected cDNA, on cells) (UniProt P36897 34-503, limits assumed); experiment: affinity cross-linking of ^125I-BMP4 to COS-1 cells transfected with ALK5 and daf-4 cDNA; immunoprecipitation with ALK antiserum, autoradiography
T1 construct: whole, on cells
T1 sequence (looked up): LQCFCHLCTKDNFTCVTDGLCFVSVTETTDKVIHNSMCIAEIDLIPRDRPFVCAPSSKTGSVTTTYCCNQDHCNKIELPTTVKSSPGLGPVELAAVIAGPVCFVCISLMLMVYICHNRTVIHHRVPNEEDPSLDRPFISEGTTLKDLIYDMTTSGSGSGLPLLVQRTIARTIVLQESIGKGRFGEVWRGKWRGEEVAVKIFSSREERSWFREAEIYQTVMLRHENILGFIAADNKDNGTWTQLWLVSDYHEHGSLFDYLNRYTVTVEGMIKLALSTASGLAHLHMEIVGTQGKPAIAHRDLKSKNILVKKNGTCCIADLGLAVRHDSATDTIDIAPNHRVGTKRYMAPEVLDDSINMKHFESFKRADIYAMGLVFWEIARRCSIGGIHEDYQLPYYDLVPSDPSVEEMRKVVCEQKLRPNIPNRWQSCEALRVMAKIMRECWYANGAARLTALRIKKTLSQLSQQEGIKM
Procedure: (§1) Briefly, cells in multi-well plates were washed with binding buffer (e.g., phosphate buffered saline containing 0.9 mM CaCl₂, 0.49 mM MgCl₂ and 1 mg/ml bovine serum albumin (BSA)), incubated on ice in the same buffer with labelled ligand, in the presence and absence of excess unlabelled ligand for sufficient time for the reaction to equilibrate (e.g., 3 hours.) Cells were washed and the crosslinking was done in the binding buffer without BSA together with 0.28 mM disuccinimidyl suberate for 15 min on ice. […] Cells were centrifuged again and supernatants subjected to analysis by standard SDS-gel electrophoresis using 4%-15% polyacrylamide gels, followed by autoradiography.
(§2) The gels were fixed and dried, and then subjected to autoradiography or analysis using phosphorimager (Molecular Dynamics).
(§3) In the Table, “N/T” means “not tested”. […] The values represented by “+/−”, “+”, “++”, “+++”, and “−”, are all qualitative descriptors of the relative amount of radioactivity measured when the crosslinked molecules were gel electrophoresed and subjected to autoradiography.

[2] = biological target: ALK-1 (transfected cDNA, on cells) (Homo sapiens (Human), UniProt P37023 22-503); experiment: affinity cross-linking of ^125I-BMP4 to COS-1 cells transfected with ALK1 and daf-4 cDNA; immunoprecipitation with ALK antiserum, autoradiography
Sequence of ALK-1 (transfected cDNA, on cells) (P37023 22-503 S172T limits assumed): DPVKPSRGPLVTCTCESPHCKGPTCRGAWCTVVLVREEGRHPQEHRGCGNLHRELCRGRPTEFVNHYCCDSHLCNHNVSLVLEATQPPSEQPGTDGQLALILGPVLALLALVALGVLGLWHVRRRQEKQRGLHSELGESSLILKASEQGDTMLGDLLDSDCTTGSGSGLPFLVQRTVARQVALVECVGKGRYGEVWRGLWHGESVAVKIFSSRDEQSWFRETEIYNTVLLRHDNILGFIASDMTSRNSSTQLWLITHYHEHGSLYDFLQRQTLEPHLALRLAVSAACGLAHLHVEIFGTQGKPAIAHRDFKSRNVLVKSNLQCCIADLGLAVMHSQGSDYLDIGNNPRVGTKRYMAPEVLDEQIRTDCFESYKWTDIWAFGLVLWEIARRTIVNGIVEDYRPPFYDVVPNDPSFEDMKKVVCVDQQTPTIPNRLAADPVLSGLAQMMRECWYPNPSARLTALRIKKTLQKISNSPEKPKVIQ
Procedure: as §1, §2, §3

[3] = biological target: T2, ALK-2 (transfected cDNA, on cells) (Homo sapiens (Human), UniProt Q04771 21-509); experiment: affinity cross-linking of ^125I-BMP4 to COS-1 cells transfected with ALK2 and daf-4 cDNA; immunoprecipitation with ALK antiserum, autoradiography
T2 construct: Expressed from cDNA in COS-1 cells or in Mv1Lu R mutant cells
T2 sequence: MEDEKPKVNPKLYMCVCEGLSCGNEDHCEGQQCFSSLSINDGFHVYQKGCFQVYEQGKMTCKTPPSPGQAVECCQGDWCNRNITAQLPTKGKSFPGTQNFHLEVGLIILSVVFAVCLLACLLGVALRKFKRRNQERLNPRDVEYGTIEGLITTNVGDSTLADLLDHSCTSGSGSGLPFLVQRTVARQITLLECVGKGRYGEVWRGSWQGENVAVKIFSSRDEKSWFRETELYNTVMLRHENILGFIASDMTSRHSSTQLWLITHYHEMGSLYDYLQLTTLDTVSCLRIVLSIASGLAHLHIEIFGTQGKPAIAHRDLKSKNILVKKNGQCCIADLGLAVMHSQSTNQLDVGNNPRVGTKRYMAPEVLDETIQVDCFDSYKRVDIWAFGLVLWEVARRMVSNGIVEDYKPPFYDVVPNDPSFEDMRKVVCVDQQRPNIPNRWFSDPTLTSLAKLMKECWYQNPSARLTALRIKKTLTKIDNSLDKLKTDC
Procedure: as §1, §2, §3

[4] = biological target: T3, ALK-4 (transfected cDNA, on cells) (UniProt P36896 24-505, limits assumed); experiment: affinity cross-linking of ^125I-BMP4 to COS-1 cells transfected with ALK4 and daf-4 cDNA; immunoprecipitation with ALK antiserum, autoradiography
T3 construct: whole, on cells
T3 sequence (looked up): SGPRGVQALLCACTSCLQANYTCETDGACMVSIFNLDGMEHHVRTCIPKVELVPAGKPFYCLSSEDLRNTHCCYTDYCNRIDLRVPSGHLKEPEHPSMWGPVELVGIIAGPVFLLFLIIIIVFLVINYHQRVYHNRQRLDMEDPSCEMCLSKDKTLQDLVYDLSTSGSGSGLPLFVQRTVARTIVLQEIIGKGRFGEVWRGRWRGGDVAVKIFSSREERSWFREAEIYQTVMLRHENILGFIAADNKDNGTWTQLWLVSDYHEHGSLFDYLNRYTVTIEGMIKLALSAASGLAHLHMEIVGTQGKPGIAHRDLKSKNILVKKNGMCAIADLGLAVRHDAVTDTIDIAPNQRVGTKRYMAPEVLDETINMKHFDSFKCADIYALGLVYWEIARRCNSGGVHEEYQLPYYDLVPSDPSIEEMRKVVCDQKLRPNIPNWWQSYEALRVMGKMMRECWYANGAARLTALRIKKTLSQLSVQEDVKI
Procedure: as §1, §2, §3

[5] = biological target: T3, ALK-4 (transfected cDNA, on cells); experiment: affinity cross-linking of ^125I-OP1 to COS-1 cells transfected with ALK4 and daf-4 cDNA; immunoprecipitation with ALK antiserum, autoradiography
Procedure: as §1, §2, §3

[6] = biological target: T1, ALK-5 (transfected cDNA, on cells); experiment: affinity cross-linking of ^125I-OP1 to COS-1 cells transfected with ALK5 and daf-4 cDNA; immunoprecipitation with ALK antiserum, autoradiography
Procedure: as §1, §2, §3

binding result [1]: no binding | binding result [2]: no binding | binding result [3]: no binding | binding result [4]: no binding
B1: BMP-4 (ligand, UniProt P12644 293-408, looked up)
chain: SPKHHSQRARKKNKNCRRHSLYVDFSDVGWNDWIVAPPGYQAFYCHGDCPFPLADHLNSTNHAIVQTLVNSVNSSIPKACCVPTELSAISMLYLDEYDKVVLKNYQEMVVEGCGCR
modifications: ^125I label (radioiodinated, residue not stated)

binding result [5]: no binding | binding result [6]: no binding
B2: OP-1 (osteogenic protein-1) (ligand)
chain: STGSKQRSQNRSKTPKNQEALRMANVAENSSSDQRQACKKHELYVSFRDLGWQDWIIAPEGYAAYYCEGECAFPLNSYMNATNHAIVQTLVHFINPETVPKPCCAPTQLNAISVLYFDDSSNVILKKYRNMVVRACGCH
modifications: ^125I label (radioiodinated, residue not stated); unlabeled when used as competitor
